In PMC9406194:

Experiments:
trypsin = experiment: 2DPC hydrogel aptasensor (Debye ring); conditions: DNA-H1-960, 500 uM protein; same limit as blank; 5'-NH2-(CH2)6 and 3'-(CH2)6-NH2; amide-linked to hydrogel carboxyl groups; 10 mM phosphate-buffered saline, pH 7.40 (one test at pH 5.00), 1 h immersion; temperature of the binding assay not stated
hemoglobin = experiment: 2DPC hydrogel aptasensor (Debye ring); conditions: DNA-H1-960, 500 uM protein; same limit as blank; 5'-NH2-(CH2)6 and 3'-(CH2)6-NH2; amide-linked to hydrogel carboxyl groups; 10 mM phosphate-buffered saline, pH 7.40 (one test at pH 5.00), 1 h immersion; temperature of the binding assay not stated

**Q.** How did the binding signal (nm particle spacing decrease) (trypsin) turn out when “ATCTACGAATTCATCAGGGCTAAAGAGTGCAGAGTTACTTAG [lysozyme-binding aptamer]” was run?
**A.** Its binding signal (nm particle spacing decrease) is under 12.7.

**Q.** What about the binding signal (nm particle spacing decrease) (hemoglobin) of the same sequence?
**A.** Its binding signal (nm particle spacing decrease) is under 12.7.
